Assay results taken from FireProtDB (doi:10.1002/pro.2375).

B1: Amylosucrase, Q9ZEU2 (parent)
chain: MLTPTQQVGLILQYLKTRILDIYTPEQRAGIEKSEDWRQFSRRMDTHFPKLMNELDSVYGNNEALLPMLEMLLAQAWQSYSQRNSSLKDIDIARENNPDWILSNKQVGGVCYVDLFAGDLKGLKDKIPYFQELGLTYLHLMPLFKCPEGKSDGGYAVSSYRDVNPALGTIGDLREVIAALHEAGISAVVDFIFNHTSNEHEWAQRCAAGDPLFDNFYYIFPDRRMPDQYDRTLREIFPDQHPGGFSQLEDGRWVWTTFNSFQWDLNYSNPWVFRAMAGEMLFLANLGVDILRMDAVAFIWKQMGTSCENLPQAHALIRAFNAVMRIAAPAVFFKSEAIVHPDQVVQYIGQDECQIGYNPLQMALLWNTLATREVNLLHQALTYRHNLPEHTAWVNYVRSHDDIGWTFADEDAAYLGISGYDHRQFLNRFFVNRFDGSFARGVPFQYNPSTGDCRVSGTAAALVGLAQDDPHAVDRIKLLYSIALSTGGLPLIYLGDEVGTLNDDDWSQDSNKSDDSRWAHRPRYNEALYAQRNDPSTAAGQIYQGLRHMIAVRQSNPRFDGGRLVTFNTNNKHIIGYIRNNALLAFGNFSEYPQTVTAHTLQAMPFKAHDLIGGKTVSLNQDLTLQPYQVMWLEIA

Variants of: B1
Conditions: Neisseria polysaccharea; pH 7; Thermal; DSF; Tris 50 mM; structure 1G5A; whole UniProt chain shown

Variant	change of melting temperature, mutant - wild type (higher = more stable) [°C]
R517A	0
R292H	0.4
R292K	1.6
R292V	1.8
H195W	-5.8
H195C	-0.2
H195K	-0.4
H195D	-3.4
H195V	-4
H195Q	-3
H195M	-0.2
H195I	-6.6
H195L	-6.4
H195T	-4
H195A	-1.6
H195Y	-3.2
H195N	-1.4
H195G	-2.8
H195R	-5
H400M	0.4
H400E	0.4
H400Q	-0.4
H400L	-0.4
H400P	2.2

Variant	change of melting temperature, mutant - wild type (higher = more stable) [°C]
H400W	0.4
H400F	-2.4
H400T	0.4
H400I	-0.2
H400C	0.8
H400V	0.2
H400N	-0.2
H400Y	2
H400G	0.8
H400S	0.2
H400K	-1.6
D515A	0.8
D515I	0.6
D152I	-1.6
D152E	-1.4
D152A	0.2
Y155N	-1
Y155F	-0.2
Y155A	-1
F258N	-3.2
F258Y	-0.8
R454F	0.2
R454A	-0.2
R454E	-2.2
